Molecular target: T1, glutathione S-transferase (GST)-CGI-58 (UniProt Q8WTS1 1-349)
T1 sequence (looked up): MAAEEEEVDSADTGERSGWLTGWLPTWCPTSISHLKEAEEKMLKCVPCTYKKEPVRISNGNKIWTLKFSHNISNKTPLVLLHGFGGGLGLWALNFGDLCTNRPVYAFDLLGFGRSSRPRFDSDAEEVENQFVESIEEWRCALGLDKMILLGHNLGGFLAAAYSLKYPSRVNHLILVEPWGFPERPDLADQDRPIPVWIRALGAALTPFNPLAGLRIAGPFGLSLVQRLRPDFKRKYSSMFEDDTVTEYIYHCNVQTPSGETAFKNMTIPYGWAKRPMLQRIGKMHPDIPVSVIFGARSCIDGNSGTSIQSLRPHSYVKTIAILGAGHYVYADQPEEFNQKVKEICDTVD
Test: pull-down

molar ratio of PNPLA3 to CGI-58 in the precipitates: ~0.14 mol PNPLA3 per mol CGI-58
B1: recombinant PNPLA3(148M), deca-histidine and Flag fusion protein (enzyme, UniProt Q9NST1 1-481, looked up)
chain: MYDAERGWSLSFAGCGFLGFYHVGATRCLSEHAPHLLRDARMLFGASAGALHCVGVLSGIPLEQTLQVLSDLVRKARSRNIGIFHPSFNLSKFLRQGLCKCLPANVHQLISGKIGISLTRVSDGENVLVSDFRSKDEVVDALVCSCFMPFYSGLIPPSFRGVRYVDGGVSDNVPFIDAKTTITVSPFYGEYDICPKVKSTNFLHVDITKLSLRLCTGNLYLLSRAFVPPDLKVLGEICLRGYLDAFRFLEEKGICNRPQPGLKSSSEGMDPEVAMPSWANMSLDSSPESAALAVRLEGDELLDHLRLSILPWDESILDTLSPRLATALSEEMKDKGGYMSKICNLLPIRIMSYVMLPCTLPVESAIAIVQRLVTWLPDMPDDVLWLQWVTSQVFTRVLMCLLPASRSQMPVSSQQASPCTPEQDWPCWTPCSPKGCPAETKAEATPRSILRSSLNFFLGNKVPAGAEGLSTFPSFSLEKSL

— article PMC6563103 (Hepatology (Baltimore, Md.), 2019)
